According to patent US20120220029, “MUTANT SOX PROTEINS AND METHODS OF INDUCING PLURIPOTENCY” (Agency for Science, Technology and Research, published 2012):

Assays:
Assay in all cases: EMSA
Sox2HMG1/Oct4POU [1] = molecular target: T1, Sox2HMG1/Oct4POU (Mus musculus, UniProt P48432;P20263 P48432:33-141,P20263:126-289); conditions: label: 5'-Cy5
Procedure: (§1) Electrophoretic mobility shift assays: All EMSAs were carried out using double-stranded 5′ Cy5-labeled DNA (Sigma Proligo, see Table 1) (Jauch, R., et al. J. Mol. Biol. (2008) 376(3):758-70). Binding buffer contains 20 mM Tris-HC1 pH 8.0, 50 μM ZnCl₂, 100 mM KCl, 10% glycerol, 2 mM 13-merceptoethanol, 0.1 mg/ml bovine serum albumin (BSA) and 0.1% (v/v) Igepal CA-630. 250nM dsDNA probes were mixed with analyte proteins singly or in combinations in binding buffer and incubated for 1 hr at 4° C. in dark. Samples were loaded into a pre-run 12% (w/v) IX Tris-glycine polyacrylamide gel in 1XTG (25 mM Tris, pH 8.3; 192 mM glycine) buffer to separate different species of bound and unbound probes. The fluorescence was detected using a Typhoon 9140 PhosphorImager (Amersham Biosciences).
Profiling of Sox/Oct4 Binding to Differentially Configured Motifs: To assess the preference of Sox2 and Oct4 to physically assemble on differentially configured sox/oct motifs in vitro, electrophoretic mobility shift assays (EMSA) were conducted using purified DNA binding domains (DBDs) of Sox2 and Oct4. The heterodimerization potential of Sox2/Oct4 DBD pairs was screened on a panel of systematically modified sox/oct composite motifs (FIG. 7A). A strong cooperative interaction of Sox2 and Oct4 on the canonical element was observed (x=0, FIG. 8A, lanes 5-7). […]

Sox17HMG/Oct4POU [2] = molecular target: T2, Sox17HMG/Oct4POU (Mus musculus, UniProt Q61473;P20263 Q61473:68-136,P20263:126-289); conditions: label: 5'-Cy5
T2 sequence (Q61473 68-136, chain 1 of 2): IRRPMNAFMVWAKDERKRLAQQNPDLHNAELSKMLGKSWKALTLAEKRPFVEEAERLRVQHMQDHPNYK
T2 sequence (P20263 126-289, chain 2 of 2): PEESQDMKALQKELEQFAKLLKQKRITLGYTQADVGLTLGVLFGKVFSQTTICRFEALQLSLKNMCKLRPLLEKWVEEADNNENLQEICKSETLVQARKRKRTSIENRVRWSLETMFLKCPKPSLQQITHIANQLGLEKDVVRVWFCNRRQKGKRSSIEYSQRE
Procedure: (§2) 250nM dsDNA probes were mixed with analyte proteins singly or in combinations in binding buffer and incubated for 1 hr at 4° C. in dark. Samples were loaded into a pre-run 12% (w/v) IX Tris-glycine polyacrylamide gel in 1XTG (25 mM Tris, pH 8.3; 192 mM glycine) buffer to separate different species of bound and unbound probes. The fluorescence was detected using a Typhoon 9140 PhosphorImager (Amersham Biosciences).
(§3) FIG. 10: (A) Alignment of the amino acid sequence of all mouse Sox proteins. The Sox subfamilies (Bowles, J. et al., Dev. Biol. (2000) 227: 239-55) are indicated to the right. The numbering corresponds to the Sox17 sequence. Alpha helices are marked with a red bar. The FM wedge is indicated with an orange bar below the alignment and further DNA interacting residues are marked by black closed circles. Highly conserved and similar sequences are shaded in black or gray. The position of glutamate and lysine residues distinguishing Sox17 and Sox2 is marked by an arrow. The eight amino acids in helix 3 of Sox2 that were replaced by their corresponding counterparts found in Sox17 to construct the Sox2″¹⁷ protein are colored red. (B) structural model prepared using pymol by using the structural coordinates for Sox17 and the Sox2/Oct1 on DNA. The van-der-Waals surface of the DNA derived from the Sox2/Oct1 structure is shown in light gray. Sox17 (blue) was superimposed onto Sox2 (gray). Oct1 is shown in black. Note that the linker region connecting the POU specific and the POU homedomain is not present in the NMR derived model due to structural disorder. The glutamate (Sox17) and the lysine (Sox2) that were mutated are shown as ball-and-sticks. Note that the lysine exists in two alternative conformations in the NMR model. (C)Point mutations at the Sox/Oct4 interface swap the differential assembly behavior of Sox2 and Sox17 on the canonical versus the compressed element DNA element derived from a functional sox/oct element within the Nanog enhancer were used (Rodda, D. J. et al. J Biol Chem (2005) 280:24731-7). 2 denotes Sox2HMGs, 17: Sox17HMG, 2KE: Sox2KE, 17EK: Sox17EK and 2α17 the replacement of all Sox2 residues in helix 3 that differ from the corresponding Sox17 residues into their Sox17 counterpart. Sox proteins were incubated with DNA individually and in combination with Oct4.

Sox17EK HMG/Oct4POU = Sox17EK HMG/Oct4POU (Mus musculus, UniProt Q61473;P20263 Q61473:68-136,P20263:126-289, Sox17 E122K); conditions: label: 5'-Cy5
Chain of Sox17EK HMG/Oct4POU (Q61473 68-136 E122K, chain 1 of 2): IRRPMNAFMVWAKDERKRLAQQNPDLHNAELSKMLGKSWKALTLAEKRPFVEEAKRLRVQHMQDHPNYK
Chain of Sox17EK HMG/Oct4POU (P20263 126-289, stated change not applied, chain 2 of 2): as the sequence (P20263 126-289, chain 2 of 2) above
Procedure: as §2, §3

Sox2KE HMG/Oct4POU = Sox2KE HMG/Oct4POU (Mus musculus, UniProt P48432;P20263 P48432:43-111,P20263:126-289, Sox2 K95E); conditions: label: 5'-Cy5
Chain of Sox2KE HMG/Oct4POU (P48432 43-111, stated change not applied, chain 1 of 2): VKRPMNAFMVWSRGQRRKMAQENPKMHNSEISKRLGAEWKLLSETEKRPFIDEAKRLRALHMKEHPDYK
Chain of Sox2KE HMG/Oct4POU (P20263 126-289, stated change not applied, chain 2 of 2): as the sequence (P20263 126-289, chain 2 of 2) above
Procedure: as §2, §3

[3] = molecular target: T3, Sox2HMGs (core HMG)/Oct4POU (Mus musculus, UniProt P48432;P20263 P48432:43-111,P20263:126-289); conditions: label: 5'-Cy5
T3 sequence (P48432 43-111, chain 1 of 2): as the sequence (P48432 43-111, stated change not applied, chain 1 of 2) above
T3 sequence (P20263 126-289, chain 2 of 2): as the sequence (P20263 126-289, chain 2 of 2) above
Procedure: as §2, §3

Sox17HMG/Oct4POU [4] = molecular target: T2, Sox17HMG/Oct4POU; conditions: label: 5'-Cy5; remark: listed apart in the source
Procedure: as §1
(§4) FIG. 8: Differential assembly of Sox2HMG and Oct4POU (A) and Sox17HMG and Oct4 (E) on a series of different motif configurations. Motif configurations were systematically designed as outlined in FIG. 1A using 30bp DNA elements containing identical Sox (CATTGTC) and Oct4 (ATGCAAAT) consensus sequences flanked by GC rich sequences. To minimize binding anomalies due to cryptic elements at the periphery or within the spacer region we used idealized motifs (CATTGTC for sox and ATGCAAAT for oct) and introduced G's and C's as spacer and boundary nucleotides. Each DNA element was mixed with individual transcription factor proteins as well as with both Sox2 and Oct4 DBDs in combination (See supplementary information). 250 nM of every cy5-labelled DNA element was incubated with 50 nM Sox2HMG1/Sox17HMG and 250 nM Oct4POU proteins alone and in combination followed by PAGE to assess the formation of ternary Sox/Oct4/DNA complex. The position of the various protein DNA complexes are marked by arrows. The number of spacer basepairs is indicated above and below the gels. X=-1 denotes the compressed and X=0 the canonical elements. The co-occurrence of canonical and compressed motifs within genomic regions co-bound by Sox2 and Oct4 in mouse embryonic stem cells are depicted in (B). […]

Sox2HMG1/Oct4POU [5] = molecular target: T1, Sox2HMG1/Oct4POU; conditions: label: 5'-Cy5; remark: listed apart in the source
Procedure: as §1, §4

Oct4 POU domain [6] = molecular target: T4, Oct4 POU domain (Mus musculus, UniProt P20263 P20263:126-289); conditions: tags: N-terminal MBP tag removed by TEV protease; label: 5'-Cy5
T4 sequence (P20263 126-289, one chain of several): as the sequence (P20263 126-289, chain 2 of 2) above
Procedure: as §1
(§5) FIG. 9: (A) Differential assembly of Sox2/Oct4 and Sox17/Oct4 on the compressed and canonical elements. Proteins were added to 250nM DNA elements in the sequences indicated above the lanes. To distinguish shifts caused by Sox2 and Sox17 a N and C-terminally extended Sox2-HMG (Sox2HMG1) domain was used in these experiments. As a consequence, both, the Sox2/DNA and the Sox2/Oct4/DNA complex, migrate slower than the corresponding Sox17 complexes, allowing us to visualize a Sox2/Oct4 and Sox17/Oct4 DNA complex on the same gel. […]

[7] = molecular target: Sox2HMG1 (extended HMG domain) (Mus musculus, UniProt P48432 SEQ:33-141); conditions: label: 5'-Cy5
Chain of Sox2HMG1 (extended HMG domain) (P48432 33-141): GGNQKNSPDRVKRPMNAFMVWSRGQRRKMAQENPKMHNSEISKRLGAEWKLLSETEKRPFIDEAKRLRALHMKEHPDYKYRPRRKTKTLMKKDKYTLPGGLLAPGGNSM
Procedure: as §1, §5

[8] = molecular target: T3, Sox2HMGs (core HMG)/Oct4POU; conditions: label: 5'-Cy5; remark: listed apart in the source
Procedure: as §1
(§6) FIG. 1: EMSAs to assess Sox7, Sox2HMGs and spacer nucleotides. To exclude artifacts that could have been caused by the length difference between the Sox2/Sox17 constructs, the differential assembly of the core Sox2HMG domain (termed Sox2HMGs) was tested. The domain spans the same range of amino acids of the Sox17 construct. The differential assembly of Sox7, another F group Sox protein with strong sequence similarities to Sox17 was also tested. Sox7 and Sox17 had comparably weak Oct4 heterodimerization on canonical elements whereas cooperative binding was observed on the compressed element. Thirdly, the spacer nucleotide of the canonical element on the remaining three possible nucleotides was varied (CATTGT(C/A/T/G)ATGCAAAT). The identity of the spacer nucleotide was found not to have a pronounced impact on the overall dimerization profile of the various Sox protein with Oct4. 50nM of Sox2HMGs, Sox7HMG and Sox17HMG were incubated with canonical elements containing different basebairs at position 7 of the Sox motif (C₁A₂T₃T₄G₅T₆(A/T/C/G)₇; A-D) and on the compressed element (E) in the absence (Lanes 1-3) or presence (Lanes 4-6) of 250 nM Oct4POU.

Sox7HMG/Oct4POU = Sox7HMG/Oct4POU (Mus musculus, UniProt P40646;P20263 P40646:45-113,P20263:126-289); conditions: label: 5'-Cy5
Chain of Sox7HMG/Oct4POU (P40646 45-113, chain 1 of 2): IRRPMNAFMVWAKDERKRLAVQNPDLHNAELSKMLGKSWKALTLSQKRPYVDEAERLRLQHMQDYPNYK
Chain of Sox7HMG/Oct4POU (P20263 126-289, chain 2 of 2): as the sequence (P20263 126-289, chain 2 of 2) above
Procedure: as §1, §6

Sox17HMG = Sox17HMG (Mus musculus, UniProt Q61473 SEQ:68-136); conditions: label: 5'-Cy5
Chain of Sox17HMG (Q61473 68-136): as the sequence (Q61473 68-136, chain 1 of 2) above

Oct4 POU domain [9] = molecular target: T4, Oct4 POU domain; conditions: tags: N-terminal MBP tag removed by TEV protease; label: 5'-Cy5; remark: listed apart in the source

T1 sequence (P48432 33-141, chain 1 of 2): as the sequence (P48432 33-141) above
T1 sequence (P20263 126-289, chain 2 of 2): as the sequence (P20263 126-289, chain 2 of 2) above

B1: order (dsDNA)
DNA 1: GGCGCGGATGCAAATCATTGTCCGGCGGCG
DNA 2: CGCCGCCGGACAATGATTTGCATCCGCGCC
B1: no binding (Sox2HMG1/Oct4POU [1]).

B2: Nanog' compressed (-1) (dsDNA)
DNA 1: CTGGACATTGTATGCAAAAGAA
DNA 2: TTCTTTTGCATACAATGTCCAG
B2: binds (Sox17HMG/Oct4POU [2]); no binding (Sox17EK HMG/Oct4POU); binds (Sox2KE HMG/Oct4POU).

B3: Nanog canonical (dsDNA)
DNA 1: CATGGACATTGTAATGCAAAAGAAGCTG
DNA 2: CAGCTTCTTTTGCATTACAATGTCCATG
B3: binds (Sox17EK HMG/Oct4POU); binds [3].

B4: compressed sox/oct (-1) (dsDNA)
DNA 1: CGGCGCGGCATTGTATGCAAATCGGCGGCG
DNA 2: CGCCGCCGATTTGCATACAATGCCGCGCCG
B4: binds (Sox17HMG/Oct4POU [4]); no binding (Sox2HMG1/Oct4POU [5]); binds (Oct4 POU domain [6]). B4: binds [7]; no binding [8]; binds (Sox7HMG/Oct4POU). B4: binds (Sox17HMG).

B5: canonical sox/oct (0) (dsDNA)
DNA 1: GGCGCGGCATTGTCATGCAAATCGGCGGCG
DNA 2: CGCCGCCGATTTGCATGACAATGCCGCGCC
B5: binds (Sox2HMG1/Oct4POU [5]); binds [8]; binds (Oct4 POU domain [9]). B5: binds (Sox17HMG).
